# According to US20180346526:
# T1: YydF18-49, truncated form of YydF with residues 18 to 49
# T1 chain: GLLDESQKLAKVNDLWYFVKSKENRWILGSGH
# Biological target: T1, YydF18-49, truncated form of YydF with …
protein,measurement,value
YydG C223A mutant (protein) MYNKTVSINLDSRCNASCDHCCFSSSPTSTTRMEKEYIRELVTEFAKNKTIQVISFTGGEVFLDYKFLKELMEIIKPYEKQITLISNGFWGLSKKKVQEYFHDMNSLNVIALTISYDEYHAPFVKSSSIKNILEHSRKYPDIDISLNMAVTKDKMSNHILEELGDSILGVKITKFPMISVGAAKTRIKQENIHKFYSLEDEDSLHCPGYDIVYHHDGEIYPCASPAIFETKITLREEYNQSFERTVEKLNSNLLLFILRKEGFKWFLNILKENNKIEEFDIPYEFSSICGVCGSLFNSAEKINYFYPYMEKYYNENFKV,"epimerization activity on the peptide substrate (HPLC, LC-MS)",The C223A mutation did not either prevent the epimerization activity
"YydG, radical SAM epimerase of Bacillus subtilis (wild type) (protein) MYNKTVSINLDSRCNASCDHCCFSSSPTSTTRMEKEYIRELVTEFAKNKTIQVISFTGGEVFLDYKFLKELMEIIKPYEKQITLISNGFWGLSKKKVQEYFHDMNSLNVIALTISYDEYHAPFVKSSSIKNILEHSRKYPDIDISLNMAVTKDKMSNHILEELGDSILGVKITKFPMISVGAAKTRIKQENIHKFYSLEDEDSLHCPGYDIVYHHDGEIYPCCSPAIFETKITLREEYNQSFERTVEKLNSNLLLFILRKEGFKWFLNILKENNKIEEFDIPYEFSSICGVCGSLFNSAEKINYFYPYMEKYYNENFKV",Peptide 3*/Peptide 3 ratio relative to Peptide 2*/Peptide 2 ratio (tryptic peptide mapping),the Peptide 3*/Peptide 3 ratio was 5 times larger than the Peptide 2*/Peptide 2 ratio
same,epimerization of Ile residues,up to ˜35% of the Ile
same,epimerization of Val residues,˜10% of Val residues
same,formation of epimerized peptide derivatives (HPLC),YydF18-49 proved to be a better substrate
same,moles of 5'-dA produced per mole of modified product,YydG produced one mole of 5′-dA per mole of modified product
YydG C22A mutant (protein) MYNKTVSINLDSRCNASCDHCAFSSSPTSTTRMEKEYIRELVTEFAKNKTIQVISFTGGEVFLDYKFLKELMEIIKPYEKQITLISNGFWGLSKKKVQEYFHDMNSLNVIALTISYDEYHAPFVKSSSIKNILEHSRKYPDIDISLNMAVTKDKMSNHILEELGDSILGVKITKFPMISVGAAKTRIKQENIHKFYSLEDEDSLHCPGYDIVYHHDGEIYPCCSPAIFETKITLREEYNQSFERTVEKLNSNLLLFILRKEGFKWFLNILKENNKIEEFDIPYEFSSICGVCGSLFNSAEKINYFYPYMEKYYNENFKV,enzyme activity on the peptide substrate (HPLC),the C22A mutation did not affect the activity of the enzyme and the three epimerized peptides were produced
YydG C222A mutant (protein) MYNKTVSINLDSRCNASCDHCCFSSSPTSTTRMEKEYIRELVTEFAKNKTIQVISFTGGEVFLDYKFLKELMEIIKPYEKQITLISNGFWGLSKKKVQEYFHDMNSLNVIALTISYDEYHAPFVKSSSIKNILEHSRKYPDIDISLNMAVTKDKMSNHILEELGDSILGVKITKFPMISVGAAKTRIKQENIHKFYSLEDEDSLHCPGYDIVYHHDGEIYPACSPAIFETKITLREEYNQSFERTVEKLNSNLLLFILRKEGFKWFLNILKENNKIEEFDIPYEFSSICGVCGSLFNSAEKINYFYPYMEKYYNENFKV,enzyme activity on the peptide substrate (HPLC),The C222A mutant was also totally impaired for enzyme activity
YydG A3 mutant (AxxxAxxA) (protein) MYNKTVSINLDSRANASADHACFSSSPTSTTRMEKEYIRELVTEFAKNKTIQVISFTGGEVFLDYKFLKELMEIIKPYEKQITLISNGFWGLSKKKVQEYFHDMNSLNVIALTISYDEYHAPFVKSSSIKNILEHSRKYPDIDISLNMAVTKDKMSNHILEELGDSILGVKITKFPMISVGAAKTRIKQENIHKFYSLEDEDSLHCPGYDIVYHHDGEIYPCCSPAIFETKITLREEYNQSFERTVEKLNSNLLLFILRKEGFKWFLNILKENNKIEEFDIPYEFSSICGVCGSLFNSAEKINYFYPYMEKYYNENFKV,conversion of the peptide substrate and SAM cleavage (HPLC),the A3 mutant was unable to convert the peptide substrate and to cleave SAM
